Data as given in the nanobody polyreactivity screen of Harvey et al. (2022).

Experiment: yeast display, Sf9 membrane polyspecificity reagent, FACS + sequencing; frameworks hold sequencing errors
Procedure, shortened: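 Polyreactivity labels are assigned by the sorting gate from which each nanobody was recovered. The gates were low and high (top ~1%), set on anti-HA fluorescence for expression and streptavidin fluorescence for reagent binding. Before sorting, galactose-induced (36–48 hours) yeast display cells were stained for 1 hour at 4 °C with 10% biotinylated, detergent-solubilized Sf9 membrane reagent.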

| Sequence | polyreactivity (PSR sort gate) |
| --- | --- |
| QVQLVESGGGLVQAGGSLRLTCAASGRIFRPYTMGWYRQAPGKESELVARISISTGRTYYADSVKGRFTISRDNAKNTVYLQMNSLKPEDTAVYYCATRGYRWSVFDYWGQGTQVTVSS | high polyreactivity |
| QVQLVESGGGLVQAGCSLRLSCAASGSIFRVYAMGWYRQAPGKEREFVAAITRSGGSTYYADSVKGRFTISRDNAKNTVYLQMNSLKPEDTAVYYCNAVYYSWAQSARFDYWGQGTQVTVSS | low polyreactivity |
| QVQLVESGGGLVQAGGSLRLSCAASGSIFYDYAMGWYRQAPGKERELVAAITASGGSTYYADSVKGRFTISRDNAKNTVYLQMNSLKPEDTAVYYCAAESESYEQVGEMDSWGQGTQVTVSS | low polyreactivity |
| QVQLVESGGGLVQAGGSLRLSCAASGSIFPRYVMAWYRQAPGKERELVAAISGSGGSTYYADSVKGRFTISRDNAKNTVYFQMNSLIPEDTAVYYCNKLRRRVNRDIDDYWGQGTQVTVSS | high polyreactivity |
| QVQLVESGGGLVQAGVSLRLSCAASGRIFYPYVMGWYRQAPGKERELVAAISDSTGSTYYADSVKGRFTISRDNAKNTVYLQMNSLKPEDTAVYYCAAGWFYATYWRFYYWGQGTQVTVSS | low polyreactivity |
| QVQLVESGGGLVQAGGSLRLSCAASGRIFDRYAMGWYRQAPGKERELVATIDSGGSTNYADSVKGRFTISRDNAKNTVYLQMNSLKPEDTAVYYCAVVTHSGYWSYYYWGQGTQVTVSS | low polyreactivity |
| QVQLVESGGGLVQAGGSLRLSCAASGRTFWYYAMVWSRQAPGKERELVAGITFTGGRTYYADSVKGRFTISRDNSKNTVYLQMNSLKPEDTAVYYCAAAGLDVGRKDRDGYWGQGTQVTVSS | low polyreactivity |
| QVQLVESGGGIFQAGGSLRLSCSASGFTLQGYAMVWSRQAPGKERELVAAISWSGGSTYYADSVKGRFTISRDNAKNTVYLQMNSLKPEDTAVYYCAAETYFAEYWGQGTQVTVSS | high polyreactivity |
| QVQLVESGGGLVQAGGSLRLSCAASGIIFRLYGMGWYIQAPGKEREFVATITWRGGRTNYADSVKGRFTISRDNAKNTVYLQMNSLKPEDTAVYYCAAGSAPSYWGGWYYERDYWGQGTQVTVSS | low polyreactivity |
| QVQLVESGGGLVQAGGSLRLSCAASGRTFLPNAMGWYRQAPGKERELVAVITSGGSTNYADSVKGRFTISRDNAKNTVYLQMNSLKPEDTAVYYCAADWWRVEMEYWGQGTQVTVSS | low polyreactivity |
| QVHLVDSGGGLVQAGGSLRLSCAASGRIIYGNAMGWYRQSPGKERELVAAISSGTSTNYADSVKGRFTISRDNAKNTVYLQMNSLKPEDTAVYYCAAGSYSRYIYSLYFDFDYWGQGTQVTVSS | low polyreactivity |
| QVQLVESGGGLVQAGGSLRLSCADSGRIFGYNAMGWYRQAPGKEREFVAAITTSGGSTYYADSVKGRFTISRDNAKKTVFLQMTSLKPEDTAVYYCARDSLHVFYPYASDDYWGQGTQVTVSS | low polyreactivity |
| QVQLVESGGGLVQAGGSLRLSCAASGFIFVAYALGWYRPAPGKERELVAAITSSGVTTYYADSVKGRFTISRDNAKNTVYLQMTSLKQDDTAVYFCAAYRRRSPFDYWGQGTQVTVSS | high polyreactivity |
| QVQLVESGGGLVQAGGSLRLSCAASGIIFGGYDMGWYRQAPGKERELVAAISWSGGSTYYADSVKGRFTISRDNAKNTVYLQMNSLKPEDTAVYYCNAVGRRNVDSSLNDYWGQGTQVTVSS | low polyreactivity |
| QVQLVESGGGLVQAGGSLRLSCAASGSTFRSYAMGWYIQAPGKERELVARISYRTGSTYYADSVKGRFTISRDNAKNTVYLQMNSLKPEDTAVYYCATRGSYVGGLYDYWGQGTQVTVSS | high polyreactivity |
| QVQLVESGGGLVQAGGSLRLSCAASGSIFYLYAMGWYRHAPGKERELVATITVSGSSTYADSVKGRFTISRDNAKNTVYLQMISLKPEDTAVYYCAADGGRQVYTQLYDYWGQGTQVTVSS | low polyreactivity |
| QVEIVESGGGLVQAGGSLRLSCAASGRTFSYYAMGWYRQAPGKERELVAAISTSGGSTYYAVSVKGRFTISRDYAKITVYLQMNSLKPEDTAVYVCAASPYLRFLYGGFGYWGQGTQVTVSS | high polyreactivity |
| QVQLVESGGGLVQAGGSLRLSCAASGRIFGAYAMGWYRQAPGKERELVASITGRGTSTYYADSVKGRFTISRDNAKNTVYLQMNSLKPEDSAVYYCAADKTVRSSNYDYWGQGTQVTVSS | low polyreactivity |
| QVQLVESGGGLVQAGGSLRLSCAASGSIFGGYAMGWYRQAPGKEREWVAAITSSGGRTYYADSVKGRFTISRDNAKNTVYLQMNSLKPEDTAVYYCAARYTRWRYNYKDYDYWGQGTQVTVSS | high polyreactivity |
| QVQLVESGAGLVQAGGSLRLSCAASGSTCPGNAMGWYRQAPGKERELVAVINSGGGTNYADSVKGRFTISRDNAKNTVYFQINSLNPEDTAVYYCAKGYRRSFIGYWYLKYGYWGQGTQVTVSS | high polyreactivity |
| QVQLVESGGGLVQAGGSLRLSCAASGRTIDYNGMGWYRQAPGKERELVAVISTSGGSTFYADSVKGRFTISRDNAKKTVYLQMNSLKPEDTAVYYCAADFIVAYTLHGSYDYWGQGTQVTVSS | low polyreactivity |
| QVQLVESGGGLVQAGGSLRLSCAASGNTFVRYAMGWYRQAPGKERELVAAITRSGSSTYYADSVKGRFTISRDNAKNTVYLQMNSLKPEDTAVYYCAAYSWYYAGYDYWGQGTQVTVSS | high polyreactivity |

| Sequence | polyreactivity (PSR sort gate) |
| --- | --- |
| QVQLVESGGCLVQAGGSLRLSCAASGRTFYINTMGWYRQAPGKEREFVAAIRFSSDSTYYADSVKGRYTISRDNAKNTVYLQMNSLKPEDTAVYYCATRTYAQRYGYWGQGTQVTVSS | high polyreactivity |
| QVQLVESGGGLVQAGGSLRLSCAASGRIFVRNAMGWYRQAPGKERELVAAISRSGGSTYYADSVKGRFTISRDNAKNTVYLQMNSLKPEDTAVYYCNKGFNYGGWFKKYGYWGQGTQVTVSS | high polyreactivity |
| QVQLVESGGGLVQAGGSLRLICAASGRIFRANAMGWYRQAPGQERELVATITISGGSTYYADSVKGRFTISRDNAKNTVYLQMNCLKPEDTAVYYCNAGHTLTFVPRPAYYSMYYWGQGTQVTVSS | low polyreactivity |
| QVQLVESGGGLVQAGGRLRLSCAASGITFRTYAMGWYREAPGKERELVDAITRRGGSTYYADSVKGRFTISRDNAKNTVYLQMNSLKPEDTAVYYCAVRHNGIQASVGYDYWGQGTQVTGSS | high polyreactivity |
| QVQLVESGGGLVQAGGSLRLTCAASGSTFWDNAMGWYRQAPGKERELVAAITAIGGTTYYADSVKGRFTISRDNAKNTVYLQMKSLKPEDTAVYYCAAVWSRFLISYSTGWWFEYWGQGTQVTVSS | low polyreactivity |
| QVQLVESGGGLVQAGGSLRLSCAASGYTVAFYDMGWYRQAPRKERELVAAISASGGSTYYADSVKGRFTISRDNAKNTVYLQMNSLKPEDTAVYYCAARSKYRGDMDYWGQGTQVTVSS | high polyreactivity |
| QVQLVESGGGLVQAGGSLRLSCAASGFIFIFYAMGWYRQAPGKERELVAAITWSDDSTYYADSVKGRFTISRDNAKNTVYLQMNSLKPEDTAVYYCAASYYWYHLRRKYDYWGQGTQVTVSS | low polyreactivity |
| QFQLVESWVGLVQAGGSLRLSCAASGSTFPYYAIGWYRQAPGKERELVASIRKRGGGTYYADSVKGRFTISRDNAKNTVYLQMNSLKPEDTAVYYCAVRVYQFRFTGYDYWGHGTQVTVSS | high polyreactivity |
| QFQLVESGGGLVQAGVVSLKLCCLRKHFIYYAMAWSRQAPWKDTELVAGINSGGSTKYADSVKRRFTISRDNAKNSVYLQMNSLKPEDTAVYYCNADSYSPVIQEYDYWGQGTQVTVSS | low polyreactivity |
| QVQLEESGGGLVQAGGSLRLSCAASGSTISENTMGWYRQAPGKERELVDAISFSGGSTYYADSVKGRFTISRDIAKNTVFLQMNSLKPEDTAVYYCRRFSSSPKLALGEYDFWGQGTQVTVSS | low polyreactivity |
| QVQLVESGGGLVQAGGSLRLSCAASGGTFGRYAMGWYRQAPGKERELVASITTGGRTNYADSVKGRFTISRDNAKNTVYLQMNSLKPEDTAVYYCAKKRYGYPLPFYYWGQGTQVTVSS | high polyreactivity |
| QVQLGESGGGLVQAGGSLRLSCAASGRIFQIYGMGWYRQAPGKERELVASISSGDSTNFADSVKGRFTISRDNAKNTVYLQMNSLIPEDTAVYYCAARSRRAYNYWGQGTQVTVSS | high polyreactivity |
| QVQLEESGGGLVQAGGSLRLSCAASGSIFGYYAMGWYRKATGKEREFVADINSRDGGTYYADSVKGRFTISRDNAKNTVYLQMNSLKPEDTAVYYCAAPYYAAWVAVAIEYDYWGQGTQVTVSS | low polyreactivity |
| QVQHVESGGGLVQAGGSLRLSCAASGSTFLANTMGWYRQAHGKERELVAAITRRGGSTRYADSVKGRFTISRDNAKNTVYLQMNSLKPEDTAVYYCAAPWFRDTRGYSLYDYWGQGTQVTVSS | high polyreactivity |
| QVQLVDSGGGLVQAGGSLRLSCAASGRIFHCYAMGWYRQAPGKERELVAAIRASGGRTYYADSVKGRFTISRDNAKNTVYLQMNSLKPEDTAVYYCAADSVKYGGDYWGQGTQVTVSS | high polyreactivity |
| QVLLVESGGGLVQAGGSLRLSCAASGYIIDVNAMGWYRQAPGKERELVASISSGTSTYYADSVKGRFTISRDNAKNTVYLQMNSLKPEDTAVYYCNAGVEFAASLYYSDNYDYWGQGTQVTVSS | low polyreactivity |
| QVQLVESGGGLVQAGGSLRLSCAASGSTFPGNAMGWYRQAPGKERELVASIRRSGGSTYYADSVKGRFTISRDNAKNTVYLQMNSLKPEDTAVYYCAKRTFLVSGPRSYGCYGVYYWGQGTQVTVSS | high polyreactivity |
| QVQLVESGVGLVQAGVSLRLSCAASVSISTPYTMGWSRPAPGKERELVAAISWIGDTTSYADSVKGRFTISRDNAKNTVYLQMNRLKPEDTAVYYCNAEHRGYDYWGQGTQVTVSS | low polyreactivity |
| QVQLVESGGGLVQAGVSLRLSCAASGRTFSYYVMGWYRQAPGKETELVAAITTRTSSTYYADSVKGRFTISRDNAKNTVYLQMNSLKPEDTAVYYCARRPRARAYNYWGQGTQVTVSS | high polyreactivity |
| QVQLVESGGGIVQAGGSLRLSCAASGSTFVGNAMGWSRQAPGKERELVAAISRTGGSTYYADSVKGRFTISRDNEKNTVYLQMNSLIPEDSAVYYCNAYTRYSSRRGIGDSWGQGTQVTVSS | high polyreactivity |
| QVQLVESGGGLVQAGGSLRLSCAASGSTFAFYDMGWYRQAPGKERELVAAISPSDGDTYYADSVKGRFTISRDNAKNTVYLQMNSLKPEDTAVYYSAAETSHNPEYERGSDYWGQGTQVTVSS | low polyreactivity |
